# Measured values as given in PMC9138245.
# Target: HA-ezrin fused protein (human (cDNA from HEK293T cells)) (UniProt P15311)
# UniProt P15311, sequence (P15311 whole entry, the tested form may be a part): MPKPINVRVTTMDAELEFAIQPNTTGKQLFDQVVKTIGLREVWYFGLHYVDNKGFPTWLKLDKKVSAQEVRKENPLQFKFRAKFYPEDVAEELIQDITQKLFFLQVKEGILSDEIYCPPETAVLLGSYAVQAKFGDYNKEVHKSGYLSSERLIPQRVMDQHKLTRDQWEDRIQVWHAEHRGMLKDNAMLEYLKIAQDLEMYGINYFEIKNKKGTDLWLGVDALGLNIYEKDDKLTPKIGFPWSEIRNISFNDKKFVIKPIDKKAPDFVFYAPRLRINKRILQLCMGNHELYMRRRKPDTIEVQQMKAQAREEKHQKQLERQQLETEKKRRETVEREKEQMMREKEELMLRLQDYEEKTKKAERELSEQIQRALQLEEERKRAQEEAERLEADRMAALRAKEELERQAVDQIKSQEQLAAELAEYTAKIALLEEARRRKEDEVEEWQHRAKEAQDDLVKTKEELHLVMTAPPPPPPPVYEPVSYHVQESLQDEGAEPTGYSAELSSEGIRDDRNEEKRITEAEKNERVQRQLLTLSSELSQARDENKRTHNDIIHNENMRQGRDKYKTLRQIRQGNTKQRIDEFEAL
substance,measurement,value
GFP-BifA fused protein (natural protein),"ratio of p-ezrin/total-ezrin in dHL60 cells under BifA treatment (10 μg/mL purified BifA), phos-tag gel and immunoblot, 0 to 2 h (ratio p-ezrin/total-ezrin)",1
